The test addresses viral gp41 (HIV-1 transmembrane protein) of HIV-1IIIB (HIV-1IIIB) (UniProt P04578). Put plainly: cell-based or functional assay.
In the case of “M41 (maltose binding protein fused to the extracellular domain of HIV-1 gp41, residues 540-686) (from UniProt P0AEX9 27-392; P03377 540-686)”, the Cell fusion (IC90) is above 50000 nM and the HIV infectivity (IC90) was above 16000 nM.

Regarding “DP178 (SEQ ID NO:1), synthetic peptide corresponding to amino acids 638 to 673 of HIV-1LAI gp41”, the Cell fusion (IC90) worked out at 1 nM and the HIV infectivity (IC90) worked out at 80 nM.

With “DP107 (SEQ ID NO:25), synthetic peptide corresponding to amino acids 558 to 595 of HIV-1LAI gp41”, the Cell fusion (IC90) is 1000 nM and the HIV infectivity (IC90) was 1000 nM.

Turning to “M41-P (M41 with an Ile to Pro mutation at position 578) (from UniProt P0AEX9 27-392; P03377 540-686)”, the Cell fusion (IC90) worked out at 83 nM and the HIV infectivity (IC90) was found to be 66 nM.

The values above are taken from US6951717.
